Assay results as given in article PMC5971111 (Nature structural & molecular biology, 2018).

Molecular target: T1, Sec10 (S. cerevisiae, UniProt Q06245 1-871)
T1 sequence: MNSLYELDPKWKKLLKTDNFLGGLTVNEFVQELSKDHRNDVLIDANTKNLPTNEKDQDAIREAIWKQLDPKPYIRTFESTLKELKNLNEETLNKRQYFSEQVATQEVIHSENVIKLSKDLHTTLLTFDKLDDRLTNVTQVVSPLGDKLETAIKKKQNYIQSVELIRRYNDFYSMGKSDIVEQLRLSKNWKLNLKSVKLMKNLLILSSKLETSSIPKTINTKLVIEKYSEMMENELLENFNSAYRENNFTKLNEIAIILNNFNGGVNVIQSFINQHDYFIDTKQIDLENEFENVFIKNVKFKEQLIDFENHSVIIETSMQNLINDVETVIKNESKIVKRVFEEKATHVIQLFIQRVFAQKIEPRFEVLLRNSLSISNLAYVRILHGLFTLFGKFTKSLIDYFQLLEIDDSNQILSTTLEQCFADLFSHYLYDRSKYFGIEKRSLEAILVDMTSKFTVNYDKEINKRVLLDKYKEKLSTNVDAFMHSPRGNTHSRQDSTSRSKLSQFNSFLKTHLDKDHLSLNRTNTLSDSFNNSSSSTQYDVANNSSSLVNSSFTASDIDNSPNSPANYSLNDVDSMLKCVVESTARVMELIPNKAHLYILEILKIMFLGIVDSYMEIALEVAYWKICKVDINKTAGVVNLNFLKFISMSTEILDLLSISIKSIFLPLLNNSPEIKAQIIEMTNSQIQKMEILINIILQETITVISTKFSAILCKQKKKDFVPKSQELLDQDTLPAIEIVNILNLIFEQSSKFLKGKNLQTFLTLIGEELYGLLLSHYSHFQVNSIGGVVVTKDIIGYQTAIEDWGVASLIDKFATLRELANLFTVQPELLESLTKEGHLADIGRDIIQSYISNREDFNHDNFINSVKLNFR
Experiment: […]

B1: Exo84 (natural protein)
chain: MVEFSLKKARNNWKHVKKSASSPAKQKTPPSPAKPKQKTKKNPYSDLKDPATSYTLPTINARERSRVATSMQRRLSIHNTNYAPPTLDYSMPLPDMPNMIVPNDNVDSSHNNSSFTTENESVSSKGPSNSLNLSTADLSLNDSSYNKVPARSAMRNTVNPSGSNDPFNNSTSLRKMLANPHFNAKDFVHDKLGNASAITIDKFTSNLTDLSIQVQEEVKLNINKSYNEIMTVNNDLNVAMLELKRVRANINDLNEVLDQCTKIAEKRLQLQDQIDQERQGNFNNVESHSNSPALLPPLKAGQNGNLMRRDRSSVLILEKFWDTELDQLFKNVEGAQKFINSTKGRHILMNSANWMELNTTTGKPLQMVQIFILNDLVLIADKSRDKQNDFIVSQCYPLKDVTVTQEEFSTKRLLFKFSNSNSSLYECRDADECSRLLDVIRKAKDDLCDIFHVEEENSKRIRESFRYLQSTQQTPGRENNRSPNKNKRRSMGGSITPGRNVTGAMDQYLLQNLTLSMHSRPRSRDMSSTAQRLKFLDEGVEEIDIELARLRFESAVETLLDIESQLEDLSERISDEELMLLNLISLKIEQRREAISSKLSQSILSSNEIVHLKSGTENMIKLGLPEQALDLFLQNRSNFIQDLILQIGSVDNPTNYLTQLAVIRFQTIKKTVEDFQDIFKELGAKISSILVDWCSDEVDNHFKLIDKQLLNDEMLSPGSIKSSRKQIDGLKAVGLDFVYKLDEFIKKNSDKIR
binding result: binds
